This is an account of results in patent publication US5935824A, “Protein expression system” (Technologene, Inc., priority 1996, dated 1999).

A word on the kcat: it is the number of substrate molecules converted per active site and unit of time at saturation.

Substrate in this series: C[C@H](NC(=O)[C@H](Cc1ccccc1)NC(=O)OCc1ccccc1)C(=O)O
The series is described as follows: Flow digestion of N-CBZ-peptides through CPD-Y Acti Disk, ninhydrin assays. The class given is biochemical, yeast. Conditions: other: free enzyme; calculated from Sigma specific activity. How it is done: The reported Km values for CPD-Y have been generated using extremely low enzyme concentration compared to substrate concentration. The value for Km represents the concentration of substrate that will produce 1/2 the maximum velocity for the initial reaction rates. During the testing of the immobilized CPD-Y enzyme disks with various dipeptide substrates, the maximum flow rate that can be achieved without any substantial increase in the pressure of the solution, is 4 ml/min. At this flow rate, the substrate remains within the immobilized enzyme matrix for 1.74 seconds. This value is determined by dividing the internal porous volume of the matrix to which the enzyme is immobilized (115 μL/4000 μL, min^-1). […]
Standard ninhydrin assay: Hydrolysis of the non-proline containing N-CBZ-dipeptides was determined by assaying the amount of free amino acid released by a colorometric ninhydrin reaction at a pH greater than 5.2. […] Samples were then cooled to room temperature and 600 μl of 60% ethanol was added as the diluent and the absorbance was read at 570 nm on a Beckman DU 7000 spectrophotometer.
Proline ninhydrin assay: Hydrolysis of proline-containing N-CBZ-dipeptides were measured with a modified version of the assay described by Magne and Larher [Anal. Biochem., 200:115 (1982)]. […]

B1: carboxypeptidase Y (CPD-Y) immobilized to Acti-Disk (Saccharomyces cerevisiae S288C) (protein)
chain: KIKDPKILGIDPNVTQYTGYLDVEDEDKHFFFWTFESRNDPAKDPVILWLNGGPGCSSLTGLFFELGPSSIGPDLKPIGNPYSWNSNATVIFLDQPVNVGFSYSGSSGVSNTVAAGKDVYNFLELFFDQFPEYVNKGQDFHIAGESYAGHYIPVFASEILSHKDRNFNLTSVLIGNGLTDPLTQYNYYEPMACGEGGEPSVLPSEECSAMEDSLERCLGLIESCYDSQSVWSCVPATIYCNNAQLAPYQRTGRNVYDIRKDCEGGNLCYPTLQDIDDYLNQDYVKEAVGAEVDHYESCNFDINRNFLFAGDWMKPYHTAVTDLLNQDLPILVYAGDKDFICNWLGNKAWTDVLPWKYDEEFASQKVRNWTASITDEVAGEVKSYKHFTYLRVFNGGHMVPFDVPENALSMVNEWIHGGFSL
notes: purchased Sigma
B1: the kcat was 6200 min⁻¹.
